Results from publication PMC2994652 (Biochemistry, 2010).
Several values for one entry are separate records, joined by “and”; a condition that tells them apart may be missing. Equal entries are not always repeated.

B1: C35S Cox11-Trx (domain or fragment, Rhodobacter sphaeroides, UniProt P56940 32-191, looked up)
chain: NWFSRVTGFAGTTAVATEAPAEVLDRTVKVRFDASREAGMPWEFRPLQREMKLKIGETGLAFYEAYNPTDRTVAGTASYNVTPDAAGGYFAKIACFCFTEQVLAPGERVEMPVTFYVDPAIIDDPDGRYVRQITLSYTFHETALTEEQAALAAESATDVN
B2: K123L Cox11-Trx (domain or fragment, Rhodobacter sphaeroides, UniProt P56940 32-191, looked up)
chain: NWFCRVTGFAGTTAVATEAPAEVLDRTVKVRFDASREAGMPWEFRPLQREMKLKIGETGLAFYEAYNPTDRTVAGTASYNVTPDAAGGYFALIACFCFTEQVLAPGERVEMPVTFYVDPAIIDDPDGRYVRQITLSYTFHETALTEEQAALAAESATDVN
B3: Y110R Cox11-Trx (domain or fragment, Rhodobacter sphaeroides, UniProt P56940 32-191, looked up)
chain: NWFCRVTGFAGTTAVATEAPAEVLDRTVKVRFDASREAGMPWEFRPLQREMKLKIGETGLAFYEAYNPTDRTVAGTASRNVTPDAAGGYFAKIACFCFTEQVLAPGERVEMPVTFYVDPAIIDDPDGRYVRQITLSYTFHETALTEEQAALAAESATDVN
B4: Y110E Cox11-Trx (domain or fragment, Rhodobacter sphaeroides, UniProt P56940 32-191, looked up)
chain: NWFCRVTGFAGTTAVATEAPAEVLDRTVKVRFDASREAGMPWEFRPLQREMKLKIGETGLAFYEAYNPTDRTVAGTASENVTPDAAGGYFAKIACFCFTEQVLAPGERVEMPVTFYVDPAIIDDPDGRYVRQITLSYTFHETALTEEQAALAAESATDVN
B5: K123L-E131K Cox11-Trx (domain or fragment, Rhodobacter sphaeroides, UniProt P56940 32-191, looked up)
chain: NWFCRVTGFAGTTAVATEAPAEVLDRTVKVRFDASREAGMPWEFRPLQREMKLKIGETGLAFYEAYNPTDRTVAGTASYNVTPDAAGGYFALIACFCFTKQVLAPGERVEMPVTFYVDPAIIDDPDGRYVRQITLSYTFHETALTEEQAALAAESATDVN
B6: Cox11 domain of R. sphaeroides Cox11-Trx after cleavage from Trx (domain or fragment, Rhodobacter sphaeroides, UniProt P56940 32-191, looked up)
chain: NWFCRVTGFAGTTAVATEAPAEVLDRTVKVRFDASREAGMPWEFRPLQREMKLKIGETGLAFYEAYNPTDRTVAGTASYNVTPDAAGGYFAKIACFCFTEQVLAPGERVEMPVTFYVDPAIIDDPDGRYVRQITLSYTFHETALTEEQAALAAESATDVN
B7: F127I Cox11-Trx (domain or fragment, Rhodobacter sphaeroides, UniProt P56940 32-191, looked up)
chain: NWFCRVTGFAGTTAVATEAPAEVLDRTVKVRFDASREAGMPWEFRPLQREMKLKIGETGLAFYEAYNPTDRTVAGTASYNVTPDAAGGYFAKIACICFTEQVLAPGERVEMPVTFYVDPAIIDDPDGRYVRQITLSYTFHETALTEEQAALAAESATDVN
B8: C126A-C128A Cox11-Trx (domain or fragment, Rhodobacter sphaeroides, UniProt P56940 32-191, looked up)
chain: NWFCRVTGFAGTTAVATEAPAEVLDRTVKVRFDASREAGMPWEFRPLQREMKLKIGETGLAFYEAYNPTDRTVAGTASYNVTPDAAGGYFAKIAAFAFTEQVLAPGERVEMPVTFYVDPAIIDDPDGRYVRQITLSYTFHETALTEEQAALAAESATDVN
B9: K123R Cox11-Trx (domain or fragment, Rhodobacter sphaeroides, UniProt P56940 32-191, looked up)
chain: NWFCRVTGFAGTTAVATEAPAEVLDRTVKVRFDASREAGMPWEFRPLQREMKLKIGETGLAFYEAYNPTDRTVAGTASYNVTPDAAGGYFARIACFCFTEQVLAPGERVEMPVTFYVDPAIIDDPDGRYVRQITLSYTFHETALTEEQAALAAESATDVN
B10: E131K Cox11-Trx (domain or fragment, Rhodobacter sphaeroides, UniProt P56940 32-191, looked up)
chain: NWFCRVTGFAGTTAVATEAPAEVLDRTVKVRFDASREAGMPWEFRPLQREMKLKIGETGLAFYEAYNPTDRTVAGTASYNVTPDAAGGYFAKIACFCFTKQVLAPGERVEMPVTFYVDPAIIDDPDGRYVRQITLSYTFHETALTEEQAALAAESATDVN
B11: C128A Cox11-Trx (domain or fragment, Rhodobacter sphaeroides, UniProt P56940 32-191, looked up)
chain: NWFCRVTGFAGTTAVATEAPAEVLDRTVKVRFDASREAGMPWEFRPLQREMKLKIGETGLAFYEAYNPTDRTVAGTASYNVTPDAAGGYFAKIACFAFTEQVLAPGERVEMPVTFYVDPAIIDDPDGRYVRQITLSYTFHETALTEEQAALAAESATDVN
B12: F129Y Cox11-Trx (domain or fragment, Rhodobacter sphaeroides, UniProt P56940 32-191, looked up)
chain: NWFCRVTGFAGTTAVATEAPAEVLDRTVKVRFDASREAGMPWEFRPLQREMKLKIGETGLAFYEAYNPTDRTVAGTASYNVTPDAAGGYFAKIACFCYTEQVLAPGERVEMPVTFYVDPAIIDDPDGRYVRQITLSYTFHETALTEEQAALAAESATDVN
B13: C35S-C126A-C128A Cox11-Trx (domain or fragment, Rhodobacter sphaeroides, UniProt P56940 32-191, looked up)
chain: NWFSRVTGFAGTTAVATEAPAEVLDRTVKVRFDASREAGMPWEFRPLQREMKLKIGETGLAFYEAYNPTDRTVAGTASYNVTPDAAGGYFAKIAAFAFTEQVLAPGERVEMPVTFYVDPAIIDDPDGRYVRQITLSYTFHETALTEEQAALAAESATDVN
B14: C126A Cox11-Trx (domain or fragment, Rhodobacter sphaeroides, UniProt P56940 32-191, looked up)
chain: NWFCRVTGFAGTTAVATEAPAEVLDRTVKVRFDASREAGMPWEFRPLQREMKLKIGETGLAFYEAYNPTDRTVAGTASYNVTPDAAGGYFAKIAAFCFTEQVLAPGERVEMPVTFYVDPAIIDDPDGRYVRQITLSYTFHETALTEEQAALAAESATDVN
B15: K123E Cox11-Trx (domain or fragment, Rhodobacter sphaeroides, UniProt P56940 32-191, looked up)
chain: NWFCRVTGFAGTTAVATEAPAEVLDRTVKVRFDASREAGMPWEFRPLQREMKLKIGETGLAFYEAYNPTDRTVAGTASYNVTPDAAGGYFAEIACFCFTEQVLAPGERVEMPVTFYVDPAIIDDPDGRYVRQITLSYTFHETALTEEQAALAAESATDVN
B16: F127Y Cox11-Trx (domain or fragment, Rhodobacter sphaeroides, UniProt P56940 32-191, looked up)
chain: NWFCRVTGFAGTTAVATEAPAEVLDRTVKVRFDASREAGMPWEFRPLQREMKLKIGETGLAFYEAYNPTDRTVAGTASYNVTPDAAGGYFAKIACYCFTEQVLAPGERVEMPVTFYVDPAIIDDPDGRYVRQITLSYTFHETALTEEQAALAAESATDVN

Biological target: the molecule itself
Test: SEC
In the case of B1, the “stoichiometry N” value is reported as 2 and 4.
With B2 the “stoichiometry N” value was 2.
B3 was tested, and the “stoichiometry N” value was 4.
With B4 the “stoichiometry N” value was 4.
In the case of B5, the “stoichiometry N” value is reported as 2.
For B6, the “stoichiometry N” value was 4.

Biological target: the molecule itself
Test: SEC
Remark: another data set of the same source
With B7 the “stoichiometry N” value was 4.
With B8 the “stoichiometry N” value was 4.
For B9, the “stoichiometry N” value was 4.
In the case of B10, the “stoichiometry N” value is reported as 4.
For B11, the “stoichiometry N” value was 4.
For B12, the “stoichiometry N” value was 4.
In the case of B2, the “stoichiometry N” value is reported as 4.
In the case of B13, the “stoichiometry N” value is reported as 4.
With B14 the “stoichiometry N” value was 4.
With B15 the “stoichiometry N” value was 4.
With B16 the “stoichiometry N” value was 4.
B5 was tested, and the “stoichiometry N” value was 4.

What follows are molecules tested against yeast Cox11-Trx (fusion of the extramembrane domain of yeast Cox11 with E. coli thioredoxin) (yeast) (assay: SEC).
“yeast Cox11-Trx (fusion of the extramembrane domain of yeast Cox11 with E. coli thioredoxin) (domain or fragment)” was tested, and the stoichiometry N was 2 and 4.
